For assay [1], the target named is T1, human CD73-transfected HEK cells (Homo sapiens, UniProt P21589).
T1 construct: expressed in transfected cells; stably transfected in method 5.1)
T1 sequence (P21589 27-549): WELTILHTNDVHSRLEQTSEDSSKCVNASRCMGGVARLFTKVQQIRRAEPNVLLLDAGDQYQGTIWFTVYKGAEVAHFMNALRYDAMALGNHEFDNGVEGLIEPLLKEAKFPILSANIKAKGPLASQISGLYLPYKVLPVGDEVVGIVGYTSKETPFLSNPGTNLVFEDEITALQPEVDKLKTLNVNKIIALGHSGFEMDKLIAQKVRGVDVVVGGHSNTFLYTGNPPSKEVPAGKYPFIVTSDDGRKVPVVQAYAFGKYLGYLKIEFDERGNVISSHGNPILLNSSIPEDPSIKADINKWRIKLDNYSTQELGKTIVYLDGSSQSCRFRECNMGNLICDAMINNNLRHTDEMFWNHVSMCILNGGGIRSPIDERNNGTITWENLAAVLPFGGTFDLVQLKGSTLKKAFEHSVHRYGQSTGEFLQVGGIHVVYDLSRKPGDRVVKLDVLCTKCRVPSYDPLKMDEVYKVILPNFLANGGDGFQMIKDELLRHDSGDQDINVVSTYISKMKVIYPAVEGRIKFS
Briefly: Epitope binning by flow cytometry (human IgG hcAb blocks rabbit IgG hcAb). The conditions noted are these: epitope assignment on human CD73 from binning. The assay is classed as binding. How it is done: (§1) • 5.1 Untransfected HEK293 cells and HEK293 cells stably transfected with human or mouse CD73 were incubated for 30 min with HEK-6E cell supernatants containing rabbit IgG hcAbs (diluted 1:10 in PBS/0.1% BSA). Following washing with PBS/0.1% BSA, bound antibodies were detected with PE-conjugated goat anti-rabbit IgG polyclonal antibody (711-116-152 Dianova, Hamburg). • 5.2 For dissociation analyses, two separate aliquots of CD73-transfected cells were incubated either with Cell Proliferation Dye eFluor 450 (eBioscience) or with hcAbs for 20 min at RT. Cells were washed four times, mixed at a 1:1 ratio and further incubated at RT for 120 min before staining of bound antibodies with PE-conjugated goat anti-rabbit IgG polyclonal antibody. The dissociation of hcAbs from the target cells and association with the eFluor 450 labeled cells was analyzed by flow cytometry using the FlowJo software (Treestar). • 5.3 For epitope analyses, cells were preincubated with excess human IgG hcAbs (10 μl HEK-6E cell supernatant/100 μl PBS/0.1% BSA) for 30 min at RT before addition of Nb-rabbit IgG hcAbs (1 μl HEK-6E cell supernatant/100 μl PBS/0.1% BSA) and further incubation for 20 min at RT and staining with PE-conjugated anti-rabbit polyclonal antibody (711-116-152 Dianova, Hamburg). Cells were washed and analyzed by flow cytometry on a BD-FACS Canto. Data were analyzed using the FlowJo software (Treestar).
To evaluate the epitopes on the CD73 protein recognized by different VHHs, representative rabbit IgG hcAbs were binned against a set of human IgG hcAbs, and bound hcAbs were detected with a PE-conjugated anti-rabbit IgG secondary antibody. Cells were pre-incubated with excess human IgG hcAbs for […] at RT to block specific epitopes before addition of rabbit IgG hcAbs as detectors and further incubation for 15 min at RT. Cells were washed, and bound antibodies were detected with PE-conjugated anti-rabbit IgG polyclonal antibody. Cells were washed and analyzed by flow cytometry on a BD-FACS Canto. Data were analyzed using the FlowJo software (Treestar). Lack of blockade by a non-binding control human IgG hcAb served as negative control (unblocked), and blockade of binding with the same VHH carrying human IgG hcAb as the rabbit IgG hcAb used for detection served as positive controls for blocking. Values for blocking were determined by comparing the mean fluorescence intensities (MFIs) of PE staining of transfected cells for unblocked vs blocked rabbit hcAbs using the formula: inhibition (%)=100−(MFI (blocked)/MFI MFI(unblocked)*100). The values were rounded to whole percentages.
On the technique in general: Flow cytometry measures light scatter and fluorescence of single cells or particles in a stream.

For assay [2], the target named is T2, soluble human CD73 (Homo sapiens, UniProt P21589).
T2 construct: The ectodomain of CD73 (aa 27-549) was expressed as a recombinant protein with a C-terminal His6× tag; His6 (C); made in house; host or cells: transiently transfected HEK cells
T2 sequence (P21589 27-549): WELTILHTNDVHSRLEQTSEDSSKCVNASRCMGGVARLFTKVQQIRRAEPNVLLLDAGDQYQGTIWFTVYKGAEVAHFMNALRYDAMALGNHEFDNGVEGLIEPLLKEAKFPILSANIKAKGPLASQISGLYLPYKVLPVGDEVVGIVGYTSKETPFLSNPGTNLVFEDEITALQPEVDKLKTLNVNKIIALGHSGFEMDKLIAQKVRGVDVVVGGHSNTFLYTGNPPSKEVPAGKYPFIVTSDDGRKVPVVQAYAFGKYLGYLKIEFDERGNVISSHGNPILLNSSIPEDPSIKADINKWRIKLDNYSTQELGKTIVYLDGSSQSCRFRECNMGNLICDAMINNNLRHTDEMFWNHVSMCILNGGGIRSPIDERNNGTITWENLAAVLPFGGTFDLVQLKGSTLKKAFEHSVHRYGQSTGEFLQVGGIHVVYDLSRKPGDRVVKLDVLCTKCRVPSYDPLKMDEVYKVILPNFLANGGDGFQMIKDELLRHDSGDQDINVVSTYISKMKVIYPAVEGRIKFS
Put plainly: Off-rates of soluble CD73 from immobilized Nb-rbIgG hcAb on Octet BLI. The assay is classed as binding. The conditions noted are these: soluble human CD73 ectodomain 200 ng/μl as analyte; Nb-rbIgG hcAb immobilized on protein A biosensor. The procedure:
The binding off-rate constants of bivalent hcAbs to human and mouse CD73 protein were determined by […] kinetic analysis on Octet RED96 (ForteBio). Immobilization of rabbit IgG hcAbs on the protein A-biosensor surface was done in HEK-6E cell supernatant, and regeneration of analytes was done with 100 mM Glycin pH=2.5. Recombinant mouse or human CD73 ectodomain was used as analytes and tested at a saturating dose of 200 ng/μl. Sensorgrams were fitted using least square regression in association than dissociation Model in Prism8 (Graphpad).
For orientation: In BLI a coated tip is dipped into the sample, and binding shifts an interference pattern.

The target in assay [3] is T3, CD73-expressing human AML-OCI3 cells (Homo sapiens, UniProt P21589).
T3 construct: CD73-expressing human AML-OCI3 cells (AML cell line); endogenous in cells; host or cells: OCI-AML3 human AML cell line
T3 sequence (P21589 27-549): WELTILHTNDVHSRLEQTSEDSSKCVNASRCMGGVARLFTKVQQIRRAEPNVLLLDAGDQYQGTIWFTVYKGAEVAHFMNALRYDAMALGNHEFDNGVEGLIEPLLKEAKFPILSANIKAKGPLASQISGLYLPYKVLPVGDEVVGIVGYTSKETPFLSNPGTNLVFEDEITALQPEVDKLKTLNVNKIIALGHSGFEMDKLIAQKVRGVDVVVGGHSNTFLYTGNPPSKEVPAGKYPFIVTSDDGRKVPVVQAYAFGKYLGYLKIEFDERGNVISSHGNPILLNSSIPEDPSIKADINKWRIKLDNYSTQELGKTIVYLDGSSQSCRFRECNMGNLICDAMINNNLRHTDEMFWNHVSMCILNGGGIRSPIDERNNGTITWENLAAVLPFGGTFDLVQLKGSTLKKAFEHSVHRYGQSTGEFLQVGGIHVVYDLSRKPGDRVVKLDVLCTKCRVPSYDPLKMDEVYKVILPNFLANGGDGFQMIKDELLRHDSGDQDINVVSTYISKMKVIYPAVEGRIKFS
Put plainly: AMP degradation by cell bound CD73, luminometric AMPglow assay. In kind it is cell-based. The conditions noted are these: AML-OCI3 cells; 10 μl supernatant of single clone or 5+5 μl of two clones. How it is done:
AMP was added and AMP degradation was measured using the luminometric AMPglow assay. Data analyses were performed using Prism (Graphpad).
Soluble recombinant human CD73 or CD73-expressing human […] cells were incubated with CD73-specific dimeric clones SB116-rbFc, SB188-rbFc, biparatopic SB116-188-Alb trimers or with non-binding L-10e-rbFc clone (control). AMP was added and AMP degradation was measured using the luminometric AMPglow assay. Data analyses were performed using Prism (Graphpad).

The target in assay [4] is T2, soluble human CD73. Put plainly: AMP hydrolysis by soluble CD73, DPEA-Napht-Azide fluorescence assay. In kind it is biochemical. Conditions: 50 ng CD73, 30 min pre-incubation with 10 μl hcAb supernatant, 1 mM AMP. How it is done: Recombinant human CD73 (50 ng) was pre-incubated for 30 min with hcAbs at RT in 96 well plates before addition of AMP and DPEA-Napht-Azide. Fluorescence signals were detected every 50 seconds for 30 repeats. ARFU values (>10^3/min) were calculated for a 10 min interval during the linear phase (from 5 min to 15 min) using Prism software (Graphpad). A non-specific rabbit IgG hcAb was used as control.
• 4.1 CD73 catalyzes the hydrolysis of AMP to adenosine. This reaction can be monitored by the shift in fluorescence intensity of DPEA-Napht-Azide. This property was used to determine whether hcAbs could interfere with the enzymatic activity of CD73. Soluble recombinant human CD73 (50 ng) was pre-incubated for 30 min with Nbs or hcAbs (10 μl HEK-6E cell supernatant containing 10-100 μg/ml hcAb) at RT in 96 well plates before addition of AMP (Sigma) to a final concentration of 1 mM and of DPEA-Napht-Azide to a final concentration of 50 μM. • 4.2 Fluorescence signals were recorded in white Nunc MicroWell plates (Nunc, 136101) on a Victor III plate reader (Perkin Elmer) (Exicitation filter: F485, Emission Filter: F535; CW-Lamp energy: 40000, counting time: 0.1 s). Data analyses were performed using Prism (Graphpad).
Soluble recombinant human CD73 (50 ng) was pre-incubated for 30 min with CD73-specific hcAbs or an irrelevant control hcAb (10 μl HEK-6E cell supernatant) at RT in 96 well plates before addition of AMP (Sigma) to a final concentration of 1 mM and of DPEA-Napht-Azide to a final concentration of 50 μM. Fluorescence signals were detected every 50 seconds for 30 repeats. Data analyses were performed using Prism (Graphpad).

The next assay deals with T4, human CD73 (Homo sapiens, UniProt P21589).
T4 construct: expressed in transfected cells; stably transfected in method 5.1)
T4 sequence (P21589 27-549): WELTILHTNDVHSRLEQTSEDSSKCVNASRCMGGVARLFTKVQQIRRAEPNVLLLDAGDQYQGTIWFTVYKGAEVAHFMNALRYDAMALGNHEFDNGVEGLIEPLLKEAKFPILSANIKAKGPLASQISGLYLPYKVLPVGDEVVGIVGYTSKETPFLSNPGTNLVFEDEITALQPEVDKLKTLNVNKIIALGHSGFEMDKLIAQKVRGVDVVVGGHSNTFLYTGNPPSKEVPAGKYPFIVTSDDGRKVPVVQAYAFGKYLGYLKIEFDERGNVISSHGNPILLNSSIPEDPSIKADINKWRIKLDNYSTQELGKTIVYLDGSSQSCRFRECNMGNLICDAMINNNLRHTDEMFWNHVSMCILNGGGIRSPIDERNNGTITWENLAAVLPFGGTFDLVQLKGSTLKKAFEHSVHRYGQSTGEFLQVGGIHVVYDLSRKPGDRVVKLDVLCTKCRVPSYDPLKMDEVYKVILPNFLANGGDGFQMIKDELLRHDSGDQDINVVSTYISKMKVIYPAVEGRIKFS
Briefly: Flow cytometry binding of rabbit IgG hcAbs to human CD73-transfected HEK cells. Conditions: family representative clone; h = binds human CD73, m = binds mouse CD73. The procedure:
HEK cells were co-transfected with expression vectors for green fluorescent protein (GFP) and human CD73, mouse CD73, and a control cell surface protein (CD39). 48 h after transfection, cells were incubated with HEK cell supernatants containing the indicated rabbit IgG hcAbs. Bound antibodies were detected with PE-conjugated anti rabbit IgG secondary antibody.
as §1
The binding specificities of the purified hcAbs were determined by flow cytometry using HEK cells transiently co-transfected with expression vectors for GFP and either mouse CD73, human CD73 or a control protein (CD39). 1×10^6 cells were incubated with 10 μl of the Nb-rbIgG hcAb containing HEK-6E cell supernatants for 30 min at 4° C. After washing, the cells were incubated with PE-conjugated anti-rabbit IgG polyclonal antibody (711-116-152 Dianova, Hamburg) and washed twice. The cells were resuspended in PBS and analyzed by flow cytometry on FACS Canto or FACS Celesta (BD Biosciences, Heidelberg). Data evaluation was conducted using the software FlowJo (Treestar, Stanford, US).

B1: SB143: CD73-specific alpaca VHH clone, family 4 in Tables 1-3, SEQ ID NO:69; tested as rabbit or human IgG hcAb (antibody)
heavy: QVQLVESGGGLVQAGGSLRLSCAASGRTFSRSTMGWFRQAPGKERVFVAAIRWIGGTTTYGDSVKGRFTISVDNAKNTLYLQMNSLKPEDTAVYYCAATAGGPYYLGGRDILYDYWGQGTQVTVSS
modifications: left off: a dimerising Fc or GST
notes: tested as rabbit or human IgG hcAb
The molecule B1 came in with an Epitope in assay [1] of 1. In addition, the Kdis in the assay with soluble human CD73 [2] stood at 0.0013 s⁻¹. Also, the “inhibition of AMP degradation” value in assay [3] is given as “pronounced inhibition of AMP degradation”. Moreover, the “effect on hydrolysis of AMP by soluble CD73” value in the assay with soluble human CD73 [4] is on record as “inhibited CD73 catalyzed hydrolysis of AMP”.

B2: SB144: CD73-specific alpaca VHH clone, family 4 in Tables 1-2, SEQ ID NO:70; tested as rabbit IgG hcAb (antibody)
heavy: QVQLVESGGGLVQAGGSLRLSCAASGRTFSGSTMGWFRQAPGKERAFVAAIRWIGGTAKYGDSVKGRFTISIDNAKNTLYLQMNSLKPEDTAVYYCAATAGGPDYLGGRDIVYDYWGQGTQVTVSS
modifications: left off: a dimerising Fc or GST
notes: tested as rabbit IgG hcAb
In the assay with soluble human CD73 [2], B2 gave a Kdis of 0.00023 s⁻¹. For the same molecule, the “inhibition of AMP degradation” value in assay [3] is listed as “pronounced inhibition of AMP degradation”. In the assay with soluble human CD73 [4], the “effect on hydrolysis of AMP by soluble CD73” value is “inhibited CD73 catalyzed hydrolysis of AMP”. In the assay with human CD73, the specificity result is reported as “h + m”.

(Values after patent publication US20240417484A1, “ANTIGEN-BINDING POLYPEPTIDES AGAINST CD73” (UNIVERSITÄTSKLINIKUM HAMBURG-EPPENDORF, priority 2021, published 2024).)
